Read-outs that look alike come from different tables or passages of the source.
Assays:
Hfq:R16A [1] = target: T1, Hfq:R16A (Escherichia coli, UniProt P0A6X3 1-102, R16A); experiment: fluorescence anisotropy
Hfq:S38W = Hfq:S38W (Escherichia coli, UniProt P0A6X3 1-102, S38W); experiment: Trp fluorescence quenching
Hfq WT [2] = target: T2, Hfq WT (Escherichia coli, UniProt P0A6X3 1-102); experiment: fluorescence anisotropy
Hfq WT [3] = target: T2, Hfq WT; experiment: fluorescence anisotropy; remark: listed apart in the source
Hfq TM [4] = target: T3, Hfq TM (Escherichia coli, UniProt P0A6X3 1-102, R16A;R17A;R19D); experiment: fluorescence anisotropy
Hfq:R16A [5] = target: T1, Hfq:R16A; experiment: fluorescence anisotropy; remark: listed apart in the source
Hfq:R16A,S65C-Cy3 = Hfq:R16A,S65C-Cy3 (Escherichia coli, UniProt P0A6X3 1-102, R16A;S65C); experiment: stopped-flow FRET
Hfq TM [6] = target: T3, Hfq TM; experiment: fluorescence anisotropy; remark: listed apart in the source

B1: Oligo CU (ssRNA)
RNA: GUGGUCAGUCGAGUGGUUUUUU
Kd (Hfq:R16A [1]): 0.07 nM | binding result (Hfq:S38W): binds | Kd (Hfq WT [2]): 0.1 nM

B2: Oligo CA (ssRNA)
RNA: GUGGUCAGUCGAGUGGAAAAAAAAAAAAAAAAAA
binding result (Hfq:S38W): binds

B3: A18 (ssRNA)
RNA: AAAAAAAAAAAAAAAAAA
Kd (Hfq:R16A [1]): 2.3 nM | Kd (Hfq WT [3]): 13.2 nM | Kd (Hfq TM [4]): 16.8 nM

B4: D16 (ssRNA)
RNA: CGAAUUUUUUAAGUGC
Kd (Hfq:R16A [5]): 39.8 nM | Kd (Hfq WT [3]): 22.5 nM | binding result (Hfq:R16A,S65C-Cy3): binds | Kd (Hfq TM [6]): 17.5 nM

B5: D16 unlabeled (ssRNA)
RNA: CGAAUUUUUUAAGUGC
binding result (Hfq:S38W): binds

Reference: PMC3753642
